Measured values taken from article PMC7677311, “Disrupting Plasmodium UIS3–host LC3 interaction with a small molecule causes parasite elimination from host cells” (Communications Biology, 2020).

Biological target: LC3 (Microtubule-associated protein 1A/1B-light chain 3) (UniProt Q9GZQ8 1-120)
Assay: ITC; 100 µM LC3 titrated into 10 µM PfUIS3; MicroCal ITC 200, 25 °C; 50 mM sodium phosphate, 150 mM NaCl, pH 6.5; one-site binding model
Conditions: both partners purified

B1: Plasmodium falciparum UIS3 (Upregulated in infective sporozoites 3) (natural protein)
chain: INKINLNKPIIENKNNVDVSIKRYNNFVDIARLSIQKHFEHLSNDQKDSHVNNMEYMQKFVQGLQENRNISLSKYQENKAVMDLKYHLQKVYANYLSQEEN
modifications: Construct limits are not given; the soluble domain is taken from PDB 2VWA, which the paper cites for PfUIS3. The His tag was removed with thrombin; the residual myc tag is left out.
Kd: 2.15 ± 0.121 µM
